Target: T1, ENaC (Homo sapiens, UniProt P37088+P51168+P51170)
T1 construct: measured the transepithelial voltage under thin film conditions in human bronchial epithelial cultures; endogenous in cells; host or cells: primary human bronchial epithelial cultures (normal or CF donors)
T1 sequence (P37088 1-669): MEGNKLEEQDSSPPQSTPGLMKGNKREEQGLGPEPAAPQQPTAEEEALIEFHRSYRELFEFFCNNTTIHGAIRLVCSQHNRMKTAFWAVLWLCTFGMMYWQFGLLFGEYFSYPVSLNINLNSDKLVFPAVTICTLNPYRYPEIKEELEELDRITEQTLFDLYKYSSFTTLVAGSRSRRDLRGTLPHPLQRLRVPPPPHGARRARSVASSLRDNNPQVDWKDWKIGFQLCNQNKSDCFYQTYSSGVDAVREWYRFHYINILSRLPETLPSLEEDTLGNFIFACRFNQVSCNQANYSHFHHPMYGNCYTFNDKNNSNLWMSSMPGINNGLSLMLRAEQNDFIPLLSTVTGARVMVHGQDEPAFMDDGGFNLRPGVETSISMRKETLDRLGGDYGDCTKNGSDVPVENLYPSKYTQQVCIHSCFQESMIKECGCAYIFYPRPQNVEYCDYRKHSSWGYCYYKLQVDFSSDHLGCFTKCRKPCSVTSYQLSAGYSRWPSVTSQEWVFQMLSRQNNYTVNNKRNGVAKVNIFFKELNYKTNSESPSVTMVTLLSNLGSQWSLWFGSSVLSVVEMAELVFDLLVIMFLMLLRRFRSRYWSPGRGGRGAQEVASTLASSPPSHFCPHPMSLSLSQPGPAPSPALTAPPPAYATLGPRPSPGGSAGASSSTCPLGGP
T1 sequence (P51168 1-640): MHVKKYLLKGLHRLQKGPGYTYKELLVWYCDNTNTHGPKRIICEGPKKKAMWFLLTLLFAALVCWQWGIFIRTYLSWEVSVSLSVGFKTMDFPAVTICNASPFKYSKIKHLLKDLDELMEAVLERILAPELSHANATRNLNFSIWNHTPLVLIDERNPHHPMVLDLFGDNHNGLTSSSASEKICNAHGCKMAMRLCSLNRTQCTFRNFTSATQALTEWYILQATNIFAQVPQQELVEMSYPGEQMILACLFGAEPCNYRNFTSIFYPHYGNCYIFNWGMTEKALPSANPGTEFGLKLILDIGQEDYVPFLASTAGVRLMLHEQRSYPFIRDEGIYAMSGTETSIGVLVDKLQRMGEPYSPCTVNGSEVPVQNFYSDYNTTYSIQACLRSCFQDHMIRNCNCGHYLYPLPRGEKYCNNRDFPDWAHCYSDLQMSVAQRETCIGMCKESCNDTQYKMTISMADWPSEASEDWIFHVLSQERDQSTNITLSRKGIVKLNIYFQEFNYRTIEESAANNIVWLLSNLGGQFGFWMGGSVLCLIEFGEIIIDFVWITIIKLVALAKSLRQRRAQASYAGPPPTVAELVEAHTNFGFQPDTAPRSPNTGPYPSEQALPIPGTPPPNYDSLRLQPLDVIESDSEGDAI
T1 sequence (P51170 1-649): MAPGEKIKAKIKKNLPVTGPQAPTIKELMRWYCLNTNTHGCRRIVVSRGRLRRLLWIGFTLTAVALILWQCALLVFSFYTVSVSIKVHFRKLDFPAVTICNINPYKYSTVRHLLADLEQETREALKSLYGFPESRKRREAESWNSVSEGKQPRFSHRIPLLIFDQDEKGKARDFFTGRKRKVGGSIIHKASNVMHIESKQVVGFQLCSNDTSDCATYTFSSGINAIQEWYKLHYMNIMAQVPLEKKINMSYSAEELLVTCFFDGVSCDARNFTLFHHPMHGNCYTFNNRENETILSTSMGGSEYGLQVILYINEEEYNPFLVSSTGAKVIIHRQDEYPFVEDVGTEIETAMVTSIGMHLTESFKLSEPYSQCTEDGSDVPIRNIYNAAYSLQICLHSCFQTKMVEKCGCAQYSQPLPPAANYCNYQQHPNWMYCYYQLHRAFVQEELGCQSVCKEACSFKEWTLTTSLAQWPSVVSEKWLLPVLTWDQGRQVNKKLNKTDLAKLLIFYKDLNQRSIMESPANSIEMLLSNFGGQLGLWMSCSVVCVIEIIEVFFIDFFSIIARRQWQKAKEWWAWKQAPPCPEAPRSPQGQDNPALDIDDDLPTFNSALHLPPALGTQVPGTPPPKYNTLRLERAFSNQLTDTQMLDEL
Assay: Transepithelial voltage (PD), thin film conditions, human bronchial epithelial cultures
Type: cell-based
Description: Tissue procurement and cell culture: Cells were harvested by enzymatic digestion from human bronchial tissue as previously described under a protocol approved by the UNC School of Medicine IRB (Tarran et al., J. Gen. Physiol. 127:591 (2006)). Human excess donor lungs and excised recipient lungs were obtained at the time of lung transplantation from portions of main stem or […] bronchi and cells were harvested by enzymatic digestion. All preparations were maintained at an air-liquid interface in a modified bronchial epithelial medium and used 2-5 weeks after seeding on 12 mm T-Clear inserts (Corning Costar) coated with human placental type VI collagen (Sigma). Phosphate buffered saline (PBS) was used for washing human bronchial epithelial culture mucosal surfaces. HBECs were maintained at an air-liquid interface in a modified bronchial epithelial growth medium (BEGM) with 5% CO2 at 37° C. and used 2-5 weeks after seeding on 12-mm T-clear inserts (Corning-Costar, Corning, N.Y., USA) (Randell, Methods Mol. Biol. 742:285 (2011)).
A single-barreled potential difference-sensing electrode was placed in the airway surface liquid by micromanipulator and used in conjunction with a macroelectrode in the serosal solution to measure transepithelial voltage using a voltmeter (World Precision Instruments). […] Transepithelial resistance was routinely measured using the EVOM system (WPI) as previously described (Tarran et al., J. Gen. Physiol. 127:591 (2006)).

B1: SPLUNC1: human SPLUNC1 (SEQ ID NO:1), 256 amino acid secreted PLUNC family protein; rSPLUNC1 is the purified V5/6His-tagged recombinant form (protein, listed as Homo sapiens)
chain: MFQTGGLIVFYGLLAQTMAQFGGLPVPLDQTLPLNVNPALPLSPTGLAGSLTNALSNGLLSGGLLGILENLPLLDILKPGGGTSGGLLGGLLGKVTSVIPGLNNIIDIKVTDPQLLELGLVQSPDGHRLYVTIPLGIKLQVNTPLVGASLLRLAVKLDITAEILAVRDKQERIHLVLGDCTHSPGSLQISLLDGLGPLPIQGLLDSLTGILNKVLPELVQGNVCPLVNEVLRGLDITLVHDIVNMLIHGLQFVIKV
modifications: V5/6His tag in recombinant form
notes: rSPLUNC1 is the purified V5/6His-tagged recombinant form
- transepithelial voltage (50 ng/ml rSPLUNC1 in 20 μl Ringer, PBS-washed cultures): significantly reduced the transepithelial voltage
- regulation of transepithelial voltage in cultures lacking SPLUNC1 (SPLUNC1 shRNA knockdown, 50 ng/ml rSPLUNC1): restored
- transepithelial voltage, cultures not pre-washed (airway surface liquid left to accumulate for 24 h): without further effect
- onset of inhibition (human bronchial epithelial cultures, FIG. 2C, 2D): 30 to 60 min
- transepithelial voltage, addition to amiloride-treated cultures (rSPLUNC1 added to the same amiloride-treated cultures, n=12): without further effect
- rate of inhibition of the transepithelial voltage (rSPLUNC1 vs aprotinin addition, effects not additive): identical rates

Reference: US9127040B2, “Regulation of sodium channels by PLUNC proteins” (The University of North Carolina at Chapel Hill, priority 2011, dated 2015)
